In patent US20200262877A1, “ION CHANNEL-BINDING PEPTIDES AND METHODS OF USE THEREOF” (priority 2017, published 2020):

Columns and labels:
Nav1.5 = Nav1.5 (Homo sapiens, UniProt Q14524); experiment: in vitro; details: 100% = no change; for Activity of Nav1.5 with peptide, expressed as a percentage of the reference compound: peptide at 0.2 μM; for Activity of Nav1.5 with peptide (percentage of the reference compound): peptide at 20 μM
Protocol: (§1) This example describes a method for assaying ion channel activity in cells.
(§2) Peptides were screened in duplicate at final concentrations of 20 μM and 200 nM, as determined by amino acid analysis, and diluted into HEPES buffered physiological saline (HBPS). HEK293 or CHO cells from the American Type Culture Collection (ATCC) were transfected with the appropriate ion channel before use. HEK293 cells were grown in Dulbecco's Modified Eagle Medium/Nutrient Mixture F-12, and CHO cells were cultured in Ham's F-12 media. All cultures were supplemented with 10% fetal bovine serum, 100 U/ml penicillin G, 100 μg/ml streptomycin sulfate, and the appropriate selection antibiotics. Prior to use, cells were washed twice with Hank's Balanced Salt Solution, and treated with Accutase cell detachment solution (Sigma-Aldrich). Cells were then washed. Peptides and controls were incubated with cells for at least five minutes.
(§3) Percent inhibition was defined as: (1-(Ipeptide/Icontrol))×100%).
(§4) Percent values were calculated using the following formula: % activation=(IPeptide/Icontrol)×100%, where IPeptide is the current produced by co-application a peptide with agonist, and Icontrol refers to the current produced by stimulation in control. Control used for each ion channel is the reference compound matched to a particular channel, as illustrated in TABLE 10 below.

hERG = hERG (Homo sapiens, UniProt Q12809); experiment: in vitro; details: 100% = no change, <100% = inhibition
Protocol: as §1, §2, §3, §4

TRPV1 = target: T1, TRPV1 (Homo sapiens, UniProt Q8NER1); experiment: Ion channel panel (IonWorks Barracuda): TRPV1; type: cell-based; details: 100% = no change, <100% = inhibition
T1 construct: host or cells: HEK293 or CHO
T1 sequence (Q8NER1 whole entry): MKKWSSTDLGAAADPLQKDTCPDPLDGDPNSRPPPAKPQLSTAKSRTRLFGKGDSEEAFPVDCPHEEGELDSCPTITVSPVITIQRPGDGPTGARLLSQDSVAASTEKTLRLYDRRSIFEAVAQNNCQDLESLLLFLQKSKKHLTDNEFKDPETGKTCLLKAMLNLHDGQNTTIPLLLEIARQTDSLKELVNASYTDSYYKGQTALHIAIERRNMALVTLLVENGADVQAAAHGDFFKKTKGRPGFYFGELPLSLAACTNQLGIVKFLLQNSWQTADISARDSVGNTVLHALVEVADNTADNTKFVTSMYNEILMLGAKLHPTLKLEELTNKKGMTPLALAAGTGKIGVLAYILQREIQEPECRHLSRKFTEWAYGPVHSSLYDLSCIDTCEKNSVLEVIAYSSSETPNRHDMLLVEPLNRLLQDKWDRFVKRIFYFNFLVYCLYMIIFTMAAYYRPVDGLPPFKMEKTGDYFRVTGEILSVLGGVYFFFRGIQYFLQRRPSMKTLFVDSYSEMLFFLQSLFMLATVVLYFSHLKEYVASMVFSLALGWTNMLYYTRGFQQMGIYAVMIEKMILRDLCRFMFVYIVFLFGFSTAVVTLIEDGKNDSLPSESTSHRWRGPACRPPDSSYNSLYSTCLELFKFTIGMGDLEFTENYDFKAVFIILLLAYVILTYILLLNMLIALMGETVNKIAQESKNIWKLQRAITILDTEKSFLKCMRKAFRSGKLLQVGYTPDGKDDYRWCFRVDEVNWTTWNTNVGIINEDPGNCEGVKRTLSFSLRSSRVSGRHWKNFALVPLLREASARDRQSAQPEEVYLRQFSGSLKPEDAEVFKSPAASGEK
Protocol: as §1, §2, §3, §4

Nav1.7 = target: T2, Nav1.7 (Homo sapiens, UniProt Q15858); experiment: cell-based; type: cell-based; details: 100% = no change; for Activity of Nav1.7 with peptide, expressed as a percentage of the reference compound: peptide at 0.2 μM; for Activity of Nav1.7 with peptide (percentage of the reference compound): peptide at 20 μM
T2 construct: host or cells: HEK293 or CHO
T2 sequence (Q15858 whole entry): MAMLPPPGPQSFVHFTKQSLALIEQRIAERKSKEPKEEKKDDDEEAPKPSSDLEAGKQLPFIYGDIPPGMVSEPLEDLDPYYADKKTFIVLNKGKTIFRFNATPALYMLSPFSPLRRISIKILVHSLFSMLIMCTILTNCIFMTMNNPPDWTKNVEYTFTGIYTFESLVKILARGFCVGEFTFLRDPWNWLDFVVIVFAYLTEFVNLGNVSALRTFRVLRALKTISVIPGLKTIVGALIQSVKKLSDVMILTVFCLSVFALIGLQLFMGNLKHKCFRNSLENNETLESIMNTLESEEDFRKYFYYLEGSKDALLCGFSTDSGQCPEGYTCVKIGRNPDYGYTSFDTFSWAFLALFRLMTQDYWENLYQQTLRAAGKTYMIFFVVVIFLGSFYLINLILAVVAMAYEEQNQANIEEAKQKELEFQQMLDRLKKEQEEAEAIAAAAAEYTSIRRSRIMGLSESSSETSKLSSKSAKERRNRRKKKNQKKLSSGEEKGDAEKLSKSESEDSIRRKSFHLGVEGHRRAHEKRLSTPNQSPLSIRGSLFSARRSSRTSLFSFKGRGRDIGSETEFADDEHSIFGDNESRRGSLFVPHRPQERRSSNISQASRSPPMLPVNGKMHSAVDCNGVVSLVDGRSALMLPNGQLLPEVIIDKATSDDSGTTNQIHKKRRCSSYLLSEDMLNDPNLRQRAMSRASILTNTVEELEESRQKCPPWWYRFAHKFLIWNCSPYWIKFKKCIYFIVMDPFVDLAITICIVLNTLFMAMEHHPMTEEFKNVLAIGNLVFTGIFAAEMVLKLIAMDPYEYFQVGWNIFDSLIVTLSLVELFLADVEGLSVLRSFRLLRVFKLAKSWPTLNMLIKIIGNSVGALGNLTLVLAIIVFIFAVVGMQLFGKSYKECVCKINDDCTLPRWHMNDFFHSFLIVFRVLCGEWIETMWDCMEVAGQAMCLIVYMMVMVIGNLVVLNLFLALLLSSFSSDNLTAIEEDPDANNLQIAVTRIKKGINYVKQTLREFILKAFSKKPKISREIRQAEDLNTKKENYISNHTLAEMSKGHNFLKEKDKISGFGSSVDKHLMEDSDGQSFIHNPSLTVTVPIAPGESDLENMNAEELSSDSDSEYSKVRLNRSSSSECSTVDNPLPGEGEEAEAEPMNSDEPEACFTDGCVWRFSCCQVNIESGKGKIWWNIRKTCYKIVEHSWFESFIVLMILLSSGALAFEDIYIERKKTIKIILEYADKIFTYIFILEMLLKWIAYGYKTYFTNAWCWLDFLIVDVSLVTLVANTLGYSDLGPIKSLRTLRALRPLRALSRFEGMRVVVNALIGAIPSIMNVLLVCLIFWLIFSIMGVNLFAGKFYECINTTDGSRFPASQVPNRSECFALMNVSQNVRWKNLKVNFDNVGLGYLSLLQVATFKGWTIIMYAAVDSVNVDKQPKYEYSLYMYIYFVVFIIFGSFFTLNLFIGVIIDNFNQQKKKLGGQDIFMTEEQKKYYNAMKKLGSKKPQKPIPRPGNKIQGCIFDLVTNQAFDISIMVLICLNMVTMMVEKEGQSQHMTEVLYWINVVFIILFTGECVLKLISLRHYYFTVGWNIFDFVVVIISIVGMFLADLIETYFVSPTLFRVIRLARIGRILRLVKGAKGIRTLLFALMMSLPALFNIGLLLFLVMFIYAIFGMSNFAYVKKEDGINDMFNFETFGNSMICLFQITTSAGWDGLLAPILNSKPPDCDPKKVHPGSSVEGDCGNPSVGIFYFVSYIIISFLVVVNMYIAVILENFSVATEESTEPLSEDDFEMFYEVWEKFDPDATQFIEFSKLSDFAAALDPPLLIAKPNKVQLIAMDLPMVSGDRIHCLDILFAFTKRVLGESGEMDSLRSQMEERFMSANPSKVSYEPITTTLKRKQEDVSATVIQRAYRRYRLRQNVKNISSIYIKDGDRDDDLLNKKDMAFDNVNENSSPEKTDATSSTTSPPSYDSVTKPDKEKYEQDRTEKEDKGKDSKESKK
Protocol: as §1
as §2, with “Peptides were screened in duplicate at final concentrations of 20 μM and 200 nM, as determined by amino acid analysis, and diluted into HEPES buffered physiological saline (HBPS).” left out
as §3, §4

Kv1.3 = target: T3, Kv1.3 (Homo sapiens, UniProt P22001); experiment: cell-based; type: cell-based; details: 100% = no change, <100% = inhibition
T3 construct: host or cells: HEK293 or CHO
Protocol: as §1, §2, §3, §4

Kv1.2 = target: T4, Kv1.2 (Homo sapiens, UniProt P16389); experiment: cell-based; type: cell-based; details: 100% = no change, <100% = inhibition
T4 construct: host or cells: HEK293 or CHO
Protocol: as §1, §2, §3, §4

Kv1.1 = target: T5, Kv1.1 (Homo sapiens, UniProt Q09470); experiment: cell-based; type: cell-based; details: 100% = no change, <100% = inhibition
T5 construct: host or cells: HEK293 or CHO
Protocol: as §1, §2, §3, §4

5HT3a = target: T6, 5HT3a (Homo sapiens, UniProt P46098); experiment: Ion channel panel (IonWorks Barracuda): 5HT3a; type: cell-based
T6 construct: host or cells: HEK293 or CHO
T6 sequence (P46098 whole entry, looked up): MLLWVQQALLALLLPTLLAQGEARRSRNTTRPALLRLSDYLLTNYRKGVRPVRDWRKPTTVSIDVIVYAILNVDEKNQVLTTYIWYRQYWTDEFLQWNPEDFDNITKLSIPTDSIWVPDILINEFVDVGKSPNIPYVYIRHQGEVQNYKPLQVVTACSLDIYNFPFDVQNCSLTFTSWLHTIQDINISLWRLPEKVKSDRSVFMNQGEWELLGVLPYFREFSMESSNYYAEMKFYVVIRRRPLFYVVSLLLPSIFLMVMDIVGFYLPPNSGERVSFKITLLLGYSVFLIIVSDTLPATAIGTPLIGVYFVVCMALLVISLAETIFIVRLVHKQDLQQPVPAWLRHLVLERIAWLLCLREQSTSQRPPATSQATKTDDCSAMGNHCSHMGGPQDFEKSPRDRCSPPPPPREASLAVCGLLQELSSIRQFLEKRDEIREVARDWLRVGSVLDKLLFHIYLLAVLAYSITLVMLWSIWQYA
Protocol: as §1, §2, §3, §4

GABA = experiment: Ion channel panel (IonWorks Barracuda): GABA; type: cell-based; details: 100% = no change, <100% = inhibition
Protocol: as §1, §2, §3, §4

α4β2 = target: T7, α4β2 (Homo sapiens, UniProt P17787+P43681); experiment: Ion channel panel (IonWorks Barracuda): α4β2; type: cell-based; details: 100% = no change, <100% = inhibition
T7 construct: host or cells: HEK293 or CHO
Protocol: as §1, §2, §3, §4

NR2A = target: T8, NR2A (Homo sapiens, UniProt Q12879); experiment: Ion channel panel (IonWorks Barracuda): NR2A; type: cell-based; details: 100% = no change, <100% = inhibition
T8 construct: host or cells: HEK293 or CHO
Protocol: as §1, §2, §3, §4

Cav2.1 = target: T9, Cav2.1 (Homo sapiens, UniProt O00555); experiment: cell-based; details: 100% = no change, <100% = inhibition
T9 construct: host or cells: HEK293 or CHO
Protocol: as §1, §2, §3, §4

Kv2.1 = target: T10, Kv2.1 (Homo sapiens, UniProt Q14721); experiment: cell-based; details: 100% = no change, <100% = inhibition
T10 construct: host or cells: HEK293 or CHO
Protocol: as §1, §2, §3, §4

Cav2.2 = target: T11, Cav2.2 (Homo sapiens, UniProt Q00975); experiment: cell-based; details: 100% = no change, <100% = inhibition
T11 construct: host or cells: HEK293 or CHO
Protocol: as §1, §2, §3, §4

NR2B = target: T12, NR2B (Homo sapiens, UniProt Q13224); experiment: Ion channel panel (IonWorks Barracuda): NR2B; type: cell-based; details: 100% = no change, <100% = inhibition
T12 construct: host or cells: HEK293 or CHO
Protocol: as §1, §2, §3, §4

TRPA1 = target: T13, TRPA1 (Homo sapiens, UniProt O75762); experiment: Ion channel panel (IonWorks Barracuda): TRPA1; type: cell-based; details: 100% = no change, <100% = inhibition
T13 construct: host or cells: HEK293 or CHO
Protocol: as §1, §2, §3, §4

Kir2.1 = target: T14, Kir2.1 (Homo sapiens, UniProt P63252); experiment: Ion channel panel (IonWorks Barracuda): Kir2.1; type: cell-based; details: 100% = no change, <100% = inhibition
T14 construct: host or cells: HEK293 or CHO
Protocol: as §1, §2, §3, §4

α3β4 = target: T15, α3β4 (Homo sapiens, UniProt P30926+P32297); experiment: Ion channel panel (IonWorks Barracuda): α3β4; type: cell-based; details: 100% = no change, <100% = inhibition
T15 construct: host or cells: HEK293 or CHO
Protocol: as §1, §2, §3, §4

[1] = first of two Nav1.5 columns (probably TP1)
[2] = second of two Nav1.5 columns (probably TP2)
[3] = first of two Nav1.7 columns (probably TP1)
[4] = second of two Nav1.7 columns (probably TP2)

Chain of Nav1.5 (Q14524 whole entry): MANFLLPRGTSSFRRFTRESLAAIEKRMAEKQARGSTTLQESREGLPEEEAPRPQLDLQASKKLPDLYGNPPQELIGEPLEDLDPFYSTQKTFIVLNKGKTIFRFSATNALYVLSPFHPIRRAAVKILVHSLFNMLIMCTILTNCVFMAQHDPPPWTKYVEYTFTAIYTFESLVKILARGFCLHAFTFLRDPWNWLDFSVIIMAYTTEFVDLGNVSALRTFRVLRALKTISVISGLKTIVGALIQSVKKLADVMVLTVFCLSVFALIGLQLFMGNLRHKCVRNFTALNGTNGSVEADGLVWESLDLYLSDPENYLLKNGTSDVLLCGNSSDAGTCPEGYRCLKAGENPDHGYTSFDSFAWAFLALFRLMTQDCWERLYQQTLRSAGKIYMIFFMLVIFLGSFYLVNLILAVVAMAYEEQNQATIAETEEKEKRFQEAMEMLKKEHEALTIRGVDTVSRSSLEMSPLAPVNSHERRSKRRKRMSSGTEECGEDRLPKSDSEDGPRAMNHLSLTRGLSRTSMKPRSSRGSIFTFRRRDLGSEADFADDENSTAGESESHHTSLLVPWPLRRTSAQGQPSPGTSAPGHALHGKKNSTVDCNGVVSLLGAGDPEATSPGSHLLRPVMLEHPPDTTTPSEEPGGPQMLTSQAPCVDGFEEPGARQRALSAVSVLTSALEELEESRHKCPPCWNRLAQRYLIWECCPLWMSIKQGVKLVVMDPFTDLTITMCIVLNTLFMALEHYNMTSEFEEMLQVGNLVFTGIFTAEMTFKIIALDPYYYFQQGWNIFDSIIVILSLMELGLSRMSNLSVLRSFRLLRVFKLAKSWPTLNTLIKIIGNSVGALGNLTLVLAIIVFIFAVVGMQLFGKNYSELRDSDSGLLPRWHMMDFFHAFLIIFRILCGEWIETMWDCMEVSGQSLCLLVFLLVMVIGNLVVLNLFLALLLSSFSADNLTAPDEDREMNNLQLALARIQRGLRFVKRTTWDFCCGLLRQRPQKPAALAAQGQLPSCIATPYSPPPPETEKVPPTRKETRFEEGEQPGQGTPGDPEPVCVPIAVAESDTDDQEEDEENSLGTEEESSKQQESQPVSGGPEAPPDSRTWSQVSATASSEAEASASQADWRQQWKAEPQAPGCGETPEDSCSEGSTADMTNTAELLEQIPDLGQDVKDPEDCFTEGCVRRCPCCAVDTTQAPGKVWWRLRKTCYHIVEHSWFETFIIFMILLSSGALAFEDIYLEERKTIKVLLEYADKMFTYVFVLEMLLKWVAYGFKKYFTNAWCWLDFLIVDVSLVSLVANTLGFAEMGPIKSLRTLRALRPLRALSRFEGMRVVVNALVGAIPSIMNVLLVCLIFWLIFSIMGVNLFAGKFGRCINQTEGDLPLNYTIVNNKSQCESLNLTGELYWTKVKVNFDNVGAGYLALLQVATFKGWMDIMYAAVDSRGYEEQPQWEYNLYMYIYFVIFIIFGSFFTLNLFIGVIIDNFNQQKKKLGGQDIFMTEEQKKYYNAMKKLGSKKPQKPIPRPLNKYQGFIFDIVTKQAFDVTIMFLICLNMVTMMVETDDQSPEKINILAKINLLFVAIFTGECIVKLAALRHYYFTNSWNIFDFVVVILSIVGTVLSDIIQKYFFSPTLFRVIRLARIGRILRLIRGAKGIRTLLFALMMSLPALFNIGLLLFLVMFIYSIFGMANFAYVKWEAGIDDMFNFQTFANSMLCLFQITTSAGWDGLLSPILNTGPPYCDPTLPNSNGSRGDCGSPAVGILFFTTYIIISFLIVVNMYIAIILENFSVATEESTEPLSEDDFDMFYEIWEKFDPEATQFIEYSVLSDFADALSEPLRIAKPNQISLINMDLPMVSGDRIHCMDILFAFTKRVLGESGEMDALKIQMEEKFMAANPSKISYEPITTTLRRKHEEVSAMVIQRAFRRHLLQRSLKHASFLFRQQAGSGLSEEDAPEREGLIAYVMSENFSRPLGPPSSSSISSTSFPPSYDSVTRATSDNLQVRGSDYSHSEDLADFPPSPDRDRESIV

Substance: 6 (GSVRIPVSCKHSGQCLKPCKDAGMRFGKCMNGKCDCTPK) [compound 6]
- Activity of Nav1.5 with peptide, expressed as a percentage of the reference compound (Nav1.5; [1]): 105%
- Activity of Nav1.5 with peptide, expressed as a percentage of the reference compound (Nav1.5; [2]): 104%
- Activity of Nav1.5 with peptide (percentage of the reference compound) (Nav1.5; [1]): 116%
- Activity of Nav1.5 with peptide (percentage of the reference compound) (Nav1.5; [2]): 120%
- Activity of hERG with peptide, expressed as a percentage of the reference compound (hERG; peptide at 0.2 μM): 107%
- Activity of hERG with peptide (percentage of the reference compound) (hERG; peptide at 20 μM): 71%
- Activity of TRPV1 with peptide, expressed as a percentage of the reference compound (TRPV1; peptide at 0.2 μM): 86%
- Activity of TRPV1 with peptide (percentage of the reference compound) (TRPV1; peptide at 20 μM): 98%
- Activity of Nav1.7 with peptide, expressed as a percentage of the reference compound (Nav1.7; [3]): 98%
- Activity of Nav1.7 with peptide, expressed as a percentage of the reference compound (Nav1.7; [4]): 95%
- Activity of Nav1.7 with peptide (percentage of the reference compound) (Nav1.7; [3]): 116%
- Activity of Nav1.7 with peptide (percentage of the reference compound) (Nav1.7; [4]): 119%
- Activity of Kv1.3 with peptide, expressed as a percentage of the reference compound (Kv1.3; peptide at 0.2 μM): 25%
- Activity of Kv1.3 with peptide (percentage of the reference compound) (Kv1.3; peptide at 20 μM): 0%
- Activity of Kv1.2 with peptide, expressed as a percentage of the reference compound (Kv1.2; peptide at 0.2 μM): 81%
- Activity of Kv1.2 with peptide (percentage of the reference compound) (Kv1.2; peptide at 20 μM): 85%
- Activity of Kv1.1 with peptide, expressed as a percentage of the reference compound (Kv1.1; peptide at 0.2 μM): 96%
- Activity of Kv1.1 with peptide (percentage of the reference compound) (Kv1.1; peptide at 20 μM): 30%
- Activity of 5HT3a with peptide (percentage of the reference compound) (5HT3a): 84%
- Activity of 5HT3a with peptide, expressed as a percentage of the reference compound (5HT3a): 85%
- Activity of GABA with peptide, expressed as a percentage of the reference compound (GABA; peptide at 0.2 μM): 104%
- Activity of GABA with peptide (percentage of the reference compound) (GABA; peptide at 20 μM): 96%
- Activity of a4b2 with peptide, expressed as a percentage of the reference compound (α4β2; peptide at 0.2 μM): 71%
- Activity of a4b2 with peptide (percentage of the reference compound) (α4β2; peptide at 20 μM): 96%
- Activity of NR2A with peptide, expressed as a percentage of the reference compound (NR2A; peptide at 0.2 μM): 86%
- Activity of NR2A with peptide (percentage of the reference compound) (NR2A; peptide at 20 μM): 88%
- Activity of Cav2.1 with peptide, expressed as a percentage of the reference compound (Cav2.1; peptide at 0.2 μM): 109%
- Activity of Cav2.1 with peptide (percentage of the reference compound) (Cav2.1; peptide at 20 μM): 111%
- Activity of Kv2.1 with peptide, expressed as a percentage of the reference compound (Kv2.1; peptide at 0.2 μM): 103%
- Activity of Kv2.1 with peptide (percentage of the reference compound) (Kv2.1; peptide at 20 μM): 124%
- Activity of Cav2.2 with peptide, expressed as a percentage of the reference compound (Cav2.2; peptide at 0.2 μM): 103%
- Activity of Cav2.2 with peptide (percentage of the reference compound) (Cav2.2; peptide at 20 μM): 107%
- Activity of NR2B with peptide, expressed as a percentage of the reference compound (NR2B; peptide at 0.2 μM): 92%
- Activity of NR2B with peptide (percentage of the reference compound) (NR2B; peptide at 20 μM): 75%
- Activity of TRPA1 with peptide, expressed as a percentage of the reference compound (TRPA1; peptide at 0.2 μM): 126%
- Activity of TRPA1 with peptide (percentage of the reference compound) (TRPA1; peptide at 20 μM): 92%
- Activity of Kir2.1 with peptide, expressed as a percentage of the reference compound (Kir2.1; peptide at 0.2 μM): 96%
- Activity of Kir2.1 with peptide (percentage of the reference compound) (Kir2.1; peptide at 20 μM): 94%
- Activity of a3b4 with peptide, expressed as a percentage of the reference compound (α3β4; peptide at 0.2 μM): 100%
- Activity of a3b4 with peptide (percentage of the reference compound) (α3β4; peptide at 20 μM): 95%
